Numbering of substitutions follows the chain as printed.

The assay deals with T1, human iRhom1, endogenously expressed on RH-30 cells (human, UniProt Q96CC6 1-855).
T1 construct: RH-30 cells are described as endogenously negative for iRhom2 but endogenously expressing iRhom1; also called NP_071895.3
T1 sequence: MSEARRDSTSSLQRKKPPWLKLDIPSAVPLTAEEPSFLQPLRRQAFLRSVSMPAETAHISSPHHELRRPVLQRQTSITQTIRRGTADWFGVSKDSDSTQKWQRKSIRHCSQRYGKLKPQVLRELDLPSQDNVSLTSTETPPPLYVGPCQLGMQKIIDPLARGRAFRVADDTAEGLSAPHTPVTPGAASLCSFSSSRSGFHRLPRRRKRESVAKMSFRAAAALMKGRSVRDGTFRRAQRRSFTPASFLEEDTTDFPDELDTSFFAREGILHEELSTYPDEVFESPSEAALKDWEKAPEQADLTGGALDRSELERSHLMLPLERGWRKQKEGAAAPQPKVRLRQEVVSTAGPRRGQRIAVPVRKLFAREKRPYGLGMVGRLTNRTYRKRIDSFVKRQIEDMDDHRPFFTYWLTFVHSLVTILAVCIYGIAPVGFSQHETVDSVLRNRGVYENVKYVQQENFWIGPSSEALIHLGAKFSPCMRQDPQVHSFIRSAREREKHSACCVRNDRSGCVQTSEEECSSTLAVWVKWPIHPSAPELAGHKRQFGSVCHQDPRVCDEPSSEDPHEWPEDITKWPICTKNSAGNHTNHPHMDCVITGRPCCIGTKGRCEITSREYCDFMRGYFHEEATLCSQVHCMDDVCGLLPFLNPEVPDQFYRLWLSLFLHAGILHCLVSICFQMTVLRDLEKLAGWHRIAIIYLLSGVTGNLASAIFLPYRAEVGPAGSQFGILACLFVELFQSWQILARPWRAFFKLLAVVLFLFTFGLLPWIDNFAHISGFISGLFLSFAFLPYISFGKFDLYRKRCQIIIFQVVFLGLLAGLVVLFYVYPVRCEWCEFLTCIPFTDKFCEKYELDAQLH
Put plainly: FACS, RH-30 cells (endogenous iRhom1, no iRhom2). The procedure:
In brief, human RPMI-8226 cells (Deutsche Sammlung von Mikroorganismen und Zellkulturen, Germany), THP-1 cells (American Type Culture Collection, USA) and RH-30 cells (Deutsche Sammlung von Mikroorganismen und Zellkulturen, Germany) were harvested with 10 mM EDTA in PBS, washed and resuspended in FACS buffer (PBS, 3% FBS, 0.05% sodium azide), and seeded in Nunc U-bottom 96-well plates (Thermo Fisher Scientific, USA) at approximately 2×10⁵ cells per well. In order to pellet cells and remove supernatants, the plates were centrifuged at 1,500 rpm and 4° C. for 3 minutes. For primary staining, cells were resuspended in 100 μl per well of either FACS buffer alone (controls), a 1:60 dilution of the hybridoma supernatant, the primary material leading to the antibodies 3, 16, 22 and 42 of the present disclosure in FACS buffer or 3 μg/ml of the antibodies 16, 22 and 42 of the present disclosure in FACS buffer and incubated on ice for 1 hour. Afterwards, plates were centrifuged at 1,500 rpm and 4° C. for 3 minutes and washed twice with 200 μl per well of FACS buffer. […] Finally, cells were resuspended in 150 μl per well of FACS buffer and analyzed using a BD Accuri™ C6 Plus flow cytometer (Becton Dickinson, Germany).
(In general: In flow cytometry, cells or beads pass a laser one at a time.)

B1: antibody 22 (antibody, V domains shown)
VH: QVTLKESGPGILQPSQTLSLTCSFSGFSLSTFGMGVGWIRQPSGKGLEWLAHIWWDDEKYYNSALKSRLTISKATSKNQVFLKIANVDTADTATYYCARISNYGSNYWYFNVWGTGTTVTVSS
VL: QVVLTQSPALMSASPGEKVTMTCSAGSSVSYMYWYQQKPGSSPRVLIYDTSNLASGVPARFTGSGSGTSYSLTISRMEAEDAATYYCQQWNSYPLTFGAGTKLELK
notes: Mouse IgG, kappa light chain; also called clone #22; m22
In the case of B1, the binding result is recorded as “no binding (tested: 3 µg/ml)”.

B2: antibody 42 (antibody, V domains shown)
VH: B1 VH with F24L, M34R, S63P, A74D, K83R, S101Q, N111D
VL: LIVLTQSPAIMSASPGEKVTMTCGATSRISYMFWYQQKPGSSPRVLIYDTSNLASGVPVRFSGSGSGTSYSLTISRVEAEDVATYYCQQWNSYPLTFGAGTKLELK
notes: Mouse IgG, kappa light chain; also called clone #42; m42
With B2, the binding result is recorded as “no binding (tested: 3 µg/ml)”.

(Values after US20240174744A1 (SCIRHOM, published 2024).)
